{
  "source": "a protein production outcome set (Wang et al. 2014)",
  "data": [
    {"assay": "label from the status in PepcDB records", "values": [
      {"sequence": "MDRRDYYVEYYEVLDRVLSDYVNQLREKREHWLKMGGHDVGVPLINLLFWQFTWHREEYDRLRKEGKSCGEALGSVKEILADKQVEEWERQEEEYKIYDHEWYEALAPYGGQLVIYIYNARQLVYLTPLIERLEEPVLLLSEYEIPDETELPDFVTAITLEFTKTVPLVNPFLKEWFPLIFQYANTFDILMRILQPKGLIFLEGCHYQQLLLATIGRDYGIPTLCIQQGWPSLMHTAFRRMPYRYYLMWGEGFRTLWEKHNPLPDFVPTGYMYQVEPRNETKKECVTFFLQGPFFLSDKRYLQEMIRLIGTVAAEFPARRFLVREHPEFRIGEEVRMEWEQIPNIEMVTDGKLAEVFARTRVGVAHYSSSLMEGVAHGAVPLVYDPTEGSRYSPDVEAEGLGMIAKTKEELTGGLSRILGNYEDFKQRIEKEQPLWFQATGEETLRNMVGFIKEKMPPVTLKEIYVVDTDTLTRERPVGVSGLLRCKNCEDFLEMCIDSCIDGLDELIAVYHDCTDRTPEILRQKAAQYPDKIRVFEYQPSVYPIDLDEEELEKAKLLPPDSIHTLAGYCNYALSKASYRYAVKIDADQVYFTDRLKHICDAYRSDKKVRFNVAECISYNLYRAYVDSFNRIEMRPFRWLERIALWTHASYASYLEKMIIRYKVPVSMSGINLFRKDREWMVGLGQEHPEPDSKEILPPFNGVRDTFFFEVSEDRIFRYMTETKLDGRHRGVEVMRCPNEILDVGFCWFHLRALMKEHEEGYRQSYRKHPERFIPLGTFVKLSYRNLQQRYKPFVAVRWAEPVFAYFFMTGKGRIPWKKLKEIE", "protein production": "failed"},
      {"sequence": "MDRSPERRTAVMIWGALVAGPALFLVVALALPLAGEPAPGIAQPLLLVLTGLVLVEVPLSWLWAVRARLAGKAGGEAISVEEQARTRLIIAAALCEGAALFAVVVFMVTRDARALPLFAIAFGALLAHYPGDRHWARLCRGSGAGSSAPPNRLMRG", "protein production": "failed"},
      {"sequence": "MDSAAPDCTAKCRSLKHALDVLSVITKGSERQIKIFLSSYCYNAATVKDAFGRNALHLVSSCGKKAVLDWLIEKGVDLLHGVSLYMQDKEGLSPLDLLMKDRPAHVVFKNTDPTEVYTWGDNTNFTLGHGSQNSKHHPELLDLFSRSRVYVKQVVLCKFHSVFLSQQGQVYTCGHGRGGRLGHGDEQTCLVPRLVEGLSGHSCSQVAAAKDHTVVLTEDGCVYTFGLNTFHQLGIIPPPSSCNVPRQSRSSKHGHNSAQLQLIPGERQLNLKKVLVSGGCMEYKVDPEHLTENGGQKICILAMDGAGRVFCWRSLSSSLKQCRWAYPRQVSISDIALNRNEILFVTQDGEGFKGKWFEDKRKNSEKKADILPNLHHSSSDVSCVSDTNSVYERIRLEKLPFAHRAVSVSTDPSGCNFAILQSDPKTSLYEIPVVSSSSFFEEFGKLLRETDEMDSFHDVTFQVGNRLFPAHKYVLAVRSDFFQKLFLSDGTLLELTDVYRKDEDAAGCHLFVVEKVHPDLFEYLLQFMYTDTCDFLTHGFKPRMIMNKKSEDSKGSPESRLHAVNCHVDDKQKSAFEVYRSNQAHTLSERQKSKPKSSKKGKGVGEDDPVKMLQNVAKKFGLSNLSSRLDGVRYENEKINVIAKKTGNKLKLSQKKCSFLYDVTMKSVDGKEFPCHKCVLCARLEYFHSMLSRSWIEASSCAALEMPIQAEILKVILDYLYTDEAVVIKESQNVDFVCSVLVVADQLLITRLKEMCEVALAENLTLKNAAMLLEFASMYNAEQLKLSCLQFIGLNMAALLEARSLDVLSEDVLKDLSIFYRKMVPAMERRVITPYQDGPDISCVQAEDGEVFLKEEISLEPNHSPWLSSSLAASPAVAPVTFASIVEEERQQEAALIRSREKPLALIQVEEHAIQDLLVFYEAFGNPDEFVIVERTPQGPVAVPMWNKHGC", "protein production": "failed"},
      {"sequence": "MDSAAVAFTTLDYVIFGVYLFVIVGLGLWVSQEEEGEEKDSADYFLASKALPFWAIGSSLIAANISAEQFIGMSGSGFRVGLAIASYEWMAAVTLLVIAWFFLPIYLEKEIYTMPQFLEERYDGRVRMLLAIFWLLVYVFVNLTSVLYMGGLSINVIMGFPLWASVLGLAAVATAYSLYGGLKAVAWTDVVQVVVLVGGGLLTTWVALDAYGGSEAGVVGGFTQLMGDASGRFNMILFEGELMYRNDEGALKDAYQLLPGLSVLFGGLWVANLFYWGCNQYIIQRALAAKSLKEAQRGLAFAGYLKLLLPLIVVVPGIVAFALDAPIQRGDEAYPWLLGEYVGSGFRGLAFAALVAAIISSLASMMNSASTIFTMDLYRNYTSREDVSERRLVRIGRAVALICIVVAAALAPQLADLDQVFQYIQEYTGFVSPGVLAIFVLGLFWSKATPNAALVSAVLSIPLSAAFKFWTPGVAFLNRMLIVFFISVALIVAISLLENEGEDHPKAIDVGGIERERDPIYNVAAFGILAITAALYAFFW", "protein production": "failed"},
      {"sequence": "MDSFKVVLEGPAPWGFRLQGGKDFNVPLSISRLTPGGKAAQAGVAVGDWVLSIDGENAGSLTHIEAQNKIRACGERLSLGLSRAQPAQSKPQKALTPPADPPRYTFAPSASLNKTARPFGAPPPTDSALSQNGQLLRQLVPDASKQRLMENTEDWRPRPGTGQSRSFRILAHLTGTEFMQDPDEEFMKKSSQVPRTEAPAPASTIPQESWPGPTTPSPTSRPPWAVDPAFAERYAPDKTSTVLTRHSQPATPTPLQNRTSIVQAAAGGGTGGGSNNGKTPVCHQCHKIIRGRYLVALGHAYHPEEFVCSQCGKVLEEGGFFEEKGAIFCPSCYDVRYAPSCAKCKKKITGEIMHALKMTWHVPCFTCAACKTPIRNRAFYMEEGAPYCERDYEKMFGTKCRGCDFKIDAGDRFLEALGFSWHDTCFVCAICQINLEGKTFYSKKDKPLCKSHAFSHV", "protein production": "failed"},
      {"sequence": "MDSFMESLNRLKEAHEKEVLGLQNKLLELNSERCRDAQRVEELFAKNHQLREQQKALKENLRVLENRLRAGLCDRCMVTQELARKKQLELENAHLQSLQHLCILTNEMNGLREENKILKEEVKRLRSLGDKTAPQAWEGTSEPPSPLPLPSPRQASGPP", "protein production": "failed"},
      {"sequence": "MDSGESGPQQWAGVVKVNDRMGYVTFTDAAGTELIPTNTIPVTLNARMAYIYCQVDEGQDLSTNPKSIKITLLADPTGIDATAITTPKVGESGDVTTNAPVGSLSFVSGYSTVAPFQFSENTIVLPVLYRVKNVTTTEDIKNELAKHTFTLVCYTDDIKSGDTILKLYLRYKVEDEPAAIAERATRTSSFKAYEISQILREYTLKSGQTKPAKITIVAQQNEYNNKLEDTSTIEKVYEIEYKTAE", "protein production": "not failed"},
      {"sequence": "MDSKEGKLTVIGEFDEMQILKKLKKRWESAKMATFGPFDPKKEAETAAAAEKKKKEENEREREREREEALYRSQSHHDTPVCPMHHHTTIVCDHDHGCIIS", "protein production": "failed"},
      {"sequence": "MDSKIDFSSYSLNDLYSSAESIDRDVYPERAKEIDGLIRQKEAEFPEEIDTTKDIGEKATKSDRLMAAIIDGVIGIISLVPVIFYVGFDSFKEPSLSLLGILFIYGVFVTMVLHGYLLYYYGQTIGKNYMSIRIENLDGTKASLATIYFKRMLPMQLIGLIPSFGQFISGIVNPLFIFGKQRRCLHDYLAKTKVSYTGT", "protein production": "failed"},
      {"sequence": "MDSPIINEQFWDALFFNGTMPWDRSQTPNELKHYLKRIADKTHSVFIPGCGAAYEVSHFVDCGHDVIAMDYSAEAVNLAKSQLGQHQDKVMLGDVFNADFSREFDVIYERAFLAALPREIWGDYFAMIERLLPSNGLLVGYFVISDDYRSRFPPFCLRSGEIEQKLEANFHLIESTPVTDSVDVFKGKEQWMVWQKLEHHHHHH", "protein production": "failed"},
      {"sequence": "MDSYSITNVKYLDPTELHRWMQEGHTTTLREPFQVVDVRGSDYMGGHIKDGWHYAYSRLKQDPEYLRELKHRLLEKQADGRGALNVIFHCMLSQQRGPSAAMLLLRSLDTAELSRCRLWVLRGGFSRWQSVYGDDESVTAGYLPDLWR", "protein production": "not failed"},
      {"sequence": "MDTAEIEADQRALQHASVEGTTETPGNAQSSTNDDVIKATVDQIVAQILSESAERKATEEGKTGKAADDVKNTPESGEDANKAAAKEPSGTPVAASSEATVPAPGSASSSNSPLPGTPPKYSNPHNLTIGARLEALSVEGNWLPARIVEVNETEQTLLVRFERNHKLKVSPSTSGSFQEWMAIKSERLRQRLSNRVLPVFELDEKCMARWSGPRKFPGTIRKLLGNDTYEVLFDDGYVKNVRAVHMNKMPKQLPPVQVAEEGASKSPTPVGTPVSSAPVAPKRASTGSLGGSSGSSGSKKSKCAPQRRDWPLLDMASLDIASLGLPEIPHDGEWTCHWVNDQPIGTEGFLIVGEHQKPTVIVQDWRLPPGWIKHMYQRSNVLGKWDVILVSPSGKRFRSKSDLKLFLESQNLVYNPDVYDFSIHRRRAKDINAYVYTHGYNPQPPPKPRPMDVSMNSTLDQSITSQHSLPSTPMPVKESQYMEAPVASLMPPAELMSPQTQPADETKPKIEAEILEASEGGTSQLMLADPHVVENGFAFIGGLKVKIQDNLYVCPREDCAKTYRKEDFLLIHIRHYHKEFAEHVSHCPKMQELAVKRTHPSSIDQVEAVPKNQIPNQQFFAKMHQQDLQQSRSFKRQSVSATATSSTPSDITPTKALLSPKMEPPSVSPTVESGIKQEDVSLDAGPTQSFNPSLSRSCKRARLSPSKRPSGSRKSNRQRSQRRPILSDNPAGHGLTEQDVEETRQSFNTPTPDTRIDSKKRRSGAATTPISSIDSPAMGDSVSTPSSNDQTDINAALAPPPAETLSKAPQYIKENGELIRIVRMRQEEIINCICEYGEEDGLMIQCELCLCWQHGACNGIVKEADVPDKYVCYICRNPQRGRDSMRFKHDQDWLFEGKLPVAAYHTANPQATKQFELLKRSHTLTGNLLDAKRSMHSLLVKINIARNRCHPKLYLWAKKWDEDNLDSTALTPVKRAKLEAPDLPNVPQPEAAIDPEECQYRLIEHIKVQQSLVLDRLNDIEAEMDELEKEDTLDDLKDADISTTKEALATFIKELETMKRLAKLNQVANMKQTLRDSATSK", "protein production": "failed"},
      {"sequence": "MDTAKTKPFDEMFLQDEVIRPIYAEYAAWLQDVPHQQLESKRQEAELLFRRVGITFNVYGEDAGAERLIPFDVVPRILSASEWARLSDGAIQRVKALNMFLHDVYHDQEIIKAGIVPSSILANAQYRPEMFGVDVPGGVYAHIAGVDLVRTGENDFYVLEDNLRTPSGVSYMLENRKMMMRLFPELFRRYPVAPVEHYPQVLLNNLRAVAQAGVHEPTVVLLTPGAYNSAYFEHAFIAQQMGIELVEGQDLFVRNNAVYMRTTEGPKRVDVIYRRIDDDFIDPLSFRPDSMLGVPGLLSVYRNGGVTLANAVGTGVADDKDTYIYVPEMIRFYLGEEPILSNVPTYQLSKADDLKYVLDNLAELVVKEVQGSGGYGMLVGPAASKQELEDFRQRILANPANYIAQPTLALSTCPTLVETGIAPRHVDLRPFVLSGKTVSLVPGALCRVALREGSLVVNSSQGGGTKDTWILKD", "protein production": "not failed"},
      {"sequence": "MDTGDKEAGEQIVCKPSFFRVSDNHHHPSRAGCPLHQGQARTGSGSPRGQVAGAEKGGDEGGRRGSGGGSSEPRDRRRREQPRAAGDEDGSAGRAHGAQGHGHGGVCGARSQRPALLKPGSRRARGAGGGRMERKGLAARASGNPSPPALGEGPRPGPPPCVPSGGGAPERGQAGAAAEPAELIRRAHEFKSQGAQCYKDKKFREAIGKYHRALLELKGLLPPPGERERDARPASPAGIPKASRLSEEQSKTVEAIEIDCYNSLAACLLQAELVNYERVKEYCLKVLKKEGENFKALYRAGVAFYHLGDYDKALYYLKEARTRQPSDTNVIRYIQLTEMKLSRCSQREKEAM", "protein production": "failed"},
      {"sequence": "MDTGPDQSYFSGNHWFVFSVYLLTFLVGLPLNLLALVVFVGKLRCRPVAVDVLLLNLTASDLLLLLFLPFRMVEAANGMHWPLPFILCPLSGFIFFTTIYLTALFLAAVSIERFLSVAHPLWYKTRPRLGQAGLVSVACWLLASAHCSVVYVIEFSGDISHSQGTNGTCYLEFWKDQLAILLPVRLEMAVVLFVVPLIITSYCYSRLVWILGRGGSHRRQRRVAGLVAATLLNFLVCFGPYNVSHVVGYICGESPVWRIYVTLLSTLNSCVDPFVYYFSSSGFQADFHELLRRLCGLWGQWQQESSMELKEQKGGEEQRADRPAERKTSEHSQGCGTGGQVACAEN", "protein production": "failed"}
    ]}
  ]
}
